B1: HENV-117 human monoclonal antibody (antibody, V domains shown)
VH: QVQLQQWGAGLLKPSETLSLTCDLSGGSFTNYYWTWIRHLPGKGLEWLGEINHSGRTNYSPSLKSRVTISVDTSKNQFSLRLSSVTAADTAVYYCARDIRKLAPKPHSYDLYYGMDVWGQGTTVTVSS
VL: EIVLTQSPGTLSLSPGERATLSCRASQSVGSNYLTWYQQKPGQPPRLLIYGASNRAAGIPDRFSGSGSGTDFTLTISRLEPEDFAVYYCQQYETSSRTFGQGTKVDIR
B2: HENV-103 human monoclonal antibody (antibody, V domains shown)
VH: QVQLQGSGPGLVKPSQTLSLTCSVSGGSVSRSGYYWGWIRQHPGKGLECIGYIYYSGITYYNPSLSGRLTISVDTSKNQFSLELSSVTAADTAVYYCARVWLGGGVFDFWGQGSLVTVSS
VL: EIVMTQSPATLSVSPGEGATLSCRASQSVSSNLAWYQQKPGQAPRLLIYDASTRATGIPARFSGSGSGTEFTLTISSLQSEDFAVYYCQQYNDWRTFGRGTKVEMR

Molecular target: full-length HeV-RBP (Hendra virus receptor binding protein); head, stalk, transmembrane, and cytoplasmic … (Hendra virus, UniProt O89343)
Sequence (O89343 whole entry): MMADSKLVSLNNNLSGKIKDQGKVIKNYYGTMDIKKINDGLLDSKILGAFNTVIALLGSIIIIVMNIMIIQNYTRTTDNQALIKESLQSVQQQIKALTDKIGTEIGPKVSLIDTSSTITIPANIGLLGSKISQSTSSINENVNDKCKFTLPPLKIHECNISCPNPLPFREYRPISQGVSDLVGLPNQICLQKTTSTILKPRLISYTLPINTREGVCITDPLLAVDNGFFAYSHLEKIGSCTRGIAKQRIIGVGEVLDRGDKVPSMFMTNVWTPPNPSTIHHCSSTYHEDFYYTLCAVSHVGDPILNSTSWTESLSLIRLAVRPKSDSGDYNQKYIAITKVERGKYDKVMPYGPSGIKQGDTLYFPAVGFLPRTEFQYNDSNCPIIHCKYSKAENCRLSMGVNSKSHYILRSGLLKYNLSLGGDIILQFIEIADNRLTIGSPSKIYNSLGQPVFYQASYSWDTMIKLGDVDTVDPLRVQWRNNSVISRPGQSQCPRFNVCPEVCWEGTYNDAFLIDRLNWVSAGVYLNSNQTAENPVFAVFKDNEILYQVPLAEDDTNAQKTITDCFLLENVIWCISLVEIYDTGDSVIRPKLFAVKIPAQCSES
Assay: flow cytometry on cells

Binder	binding result
B1	binds
B2	binds

— paper doi:10.1101/2021.02.17.431743 (bioRxiv, 2021)
